According to patent US20250076311A1 (Chugai, published 2025):

Assays:
[1] = biological target: T1, cynomolgus monkey FcγRIIIaS extracellular domain with C-terminal His-tag (cynomolgus monkey, UniProt A3RFZ7 21-206 (rhesus entry)); assay: SPR (BIACORE); KD of SG1 / KD of variant
T1 construct: also called cyno FcgRIIIaS; cynoFcγRIIIaS; not shown: His-tag added to the C-terminus

[2] = biological target: T2, human FcγRIIaH extracellular domain with C-terminal His-tag (human, UniProt P12318 34-217); assay: SPR (BIACORE); KD of SG1 / KD of variant
T2 construct: also called human FcgRIIaH; FcγRIIa type H; not shown: His-tag added to the C-terminus
T2 sequence: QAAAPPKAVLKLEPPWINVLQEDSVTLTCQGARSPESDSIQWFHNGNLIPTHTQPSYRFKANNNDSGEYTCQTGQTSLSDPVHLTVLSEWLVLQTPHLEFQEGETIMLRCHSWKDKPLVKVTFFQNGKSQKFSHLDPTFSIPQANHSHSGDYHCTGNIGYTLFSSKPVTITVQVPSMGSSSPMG

[3] = biological target: T1, cynomolgus monkey FcγRIIIaS …; assay: SPR (BIACORE), antibody captured, FcgR analyte
[4] = biological target: T3, human FcγRIIaR extracellular domain with C-terminal His-tag (human, UniProt P12318 34-217); assay: SPR (BIACORE), antibody captured, FcgR analyte
T3 construct: also called human FcgRIIaR; FcγRIIa type R; not shown: His-tag added to the C-terminus
T3 chain: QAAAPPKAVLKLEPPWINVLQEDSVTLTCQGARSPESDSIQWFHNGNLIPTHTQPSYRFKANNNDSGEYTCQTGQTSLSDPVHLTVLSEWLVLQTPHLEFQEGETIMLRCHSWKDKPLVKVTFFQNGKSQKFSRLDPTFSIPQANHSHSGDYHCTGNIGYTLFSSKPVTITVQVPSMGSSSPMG

[5] = biological target: T4, human FcγRIIIaV extracellular domain with C-terminal His-tag (human, UniProt P08637 17-208); assay: SPR (BIACORE), antibody captured, FcgR analyte
T4 construct: also called human FcgRIIIaV; not shown: His-tag added to the C-terminus
T4 sequence (P08637 17-208 F176V): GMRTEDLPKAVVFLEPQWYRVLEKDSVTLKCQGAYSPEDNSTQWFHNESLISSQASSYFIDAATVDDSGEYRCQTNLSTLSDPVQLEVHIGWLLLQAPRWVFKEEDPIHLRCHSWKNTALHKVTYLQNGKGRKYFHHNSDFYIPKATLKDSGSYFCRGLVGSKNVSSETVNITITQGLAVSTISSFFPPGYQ

[6] = biological target: T5, cynomolgus monkey FcγRIIa3 extracellular domain with C-terminal His-tag (cynomolgus monkey); assay: SPR (BIACORE), antibody captured, FcgR analyte
T5 construct: also called cyno FcgRIIa3; cynoFcγRIIa3; not shown: His-tag added to the C-terminus
T5 chain: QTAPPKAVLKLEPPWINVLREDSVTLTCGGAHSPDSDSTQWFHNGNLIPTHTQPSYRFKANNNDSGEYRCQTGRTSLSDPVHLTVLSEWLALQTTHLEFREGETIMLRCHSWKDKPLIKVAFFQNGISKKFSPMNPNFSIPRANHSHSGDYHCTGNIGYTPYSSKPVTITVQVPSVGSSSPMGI

[7] = biological target: T6, human FcγRIIb extracellular domain with C-terminal His-tag (human, UniProt P31994 43-217); assay: SPR (BIACORE), antibody captured, FcgR analyte
T6 construct: also called human FcgRIIb; not shown: His-tag added to the C-terminus
T6 sequence: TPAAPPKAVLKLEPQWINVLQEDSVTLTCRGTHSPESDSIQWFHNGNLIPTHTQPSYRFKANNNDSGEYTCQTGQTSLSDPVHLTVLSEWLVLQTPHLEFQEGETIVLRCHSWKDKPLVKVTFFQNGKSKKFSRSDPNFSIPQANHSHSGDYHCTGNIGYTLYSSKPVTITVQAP

[8] = biological target: T7, cynomolgus monkey FcγRIIa1 extracellular domain with C-terminal His-tag (cynomolgus monkey); assay: SPR (BIACORE), antibody captured, FcgR analyte
T7 construct: also called cyno FcgRIIa1; cynoFcγRIIa1; not shown: His-tag added to the C-terminus
T7 chain: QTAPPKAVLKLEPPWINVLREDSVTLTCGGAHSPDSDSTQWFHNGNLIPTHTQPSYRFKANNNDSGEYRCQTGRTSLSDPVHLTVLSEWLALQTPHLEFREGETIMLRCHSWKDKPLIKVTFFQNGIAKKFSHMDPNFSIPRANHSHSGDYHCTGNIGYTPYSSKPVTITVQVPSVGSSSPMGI

[9] = biological target: T8, cynomolgus monkey FcγRIIb extracellular domain with C-terminal His-tag (cynomolgus monkey); assay: SPR (BIACORE), antibody captured, FcgR analyte
T8 construct: also called cyno FcgRIIb; cynoFcγRIIb; not shown: His-tag added to the C-terminus
T8 chain: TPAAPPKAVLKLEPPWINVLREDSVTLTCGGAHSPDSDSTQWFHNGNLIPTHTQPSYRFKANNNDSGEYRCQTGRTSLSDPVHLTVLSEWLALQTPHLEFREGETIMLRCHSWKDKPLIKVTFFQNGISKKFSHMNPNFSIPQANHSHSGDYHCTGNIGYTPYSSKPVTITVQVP

[10] = biological target: T9, cynomolgus monkey FcγRIIa2 extracellular domain with C-terminal His-tag (cynomolgus monkey); assay: SPR (BIACORE), antibody captured, FcgR analyte
T9 construct: also called cyno FcgRIIa2; cynoFcγRIIa2; not shown: His-tag added to the C-terminus
T9 chain: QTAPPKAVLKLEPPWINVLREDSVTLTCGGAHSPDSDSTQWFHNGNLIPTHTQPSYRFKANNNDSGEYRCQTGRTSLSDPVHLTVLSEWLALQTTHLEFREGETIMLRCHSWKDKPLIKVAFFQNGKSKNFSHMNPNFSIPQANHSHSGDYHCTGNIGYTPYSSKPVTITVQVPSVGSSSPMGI

T1 sequence (A3RFZ7 21-206): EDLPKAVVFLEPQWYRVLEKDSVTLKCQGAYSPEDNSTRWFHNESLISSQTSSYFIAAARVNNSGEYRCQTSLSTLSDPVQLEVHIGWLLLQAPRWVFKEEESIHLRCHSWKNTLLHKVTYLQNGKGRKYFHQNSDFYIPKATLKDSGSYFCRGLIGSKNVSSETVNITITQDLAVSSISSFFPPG

B1: M103205H795-MY117/M103202L889-SK1 (antibody)
heavy: QVTLKESGPVLVKPTETLTLTCTVSGIDLSHDDISWVRQAPGKGLEWVGIISYAGSTYYASWAKGRLTISKDTSKNQVVLTMTNMDPVDTATYYCARGVPAYSHGGDLWGQGTLVTVSSASTKGPSVFPLAPSSKSTSGGTAALGCLVKDYFPEPVTVSWNSGALTSGVHTFPAVLQSSGLYSLSSVVTVPSSSLGTQTYICNVNHKPSNTKVDKKVEPKSCDKTHTCPPCPAPEWLNGPSVFLFPPKPKDTLMISRTPEVTCVVVDVAEEDPEVKFNWYVDGVEVHNAKTKPREEQYNSTYRVVSVLTVLHQDWLNGKEYKCKVSNKALPAPIEKTISKAKGQPREPQVYTLPPSREEMTKNQVSLTCLVKGFYPSDIAVEWESNGQPENNYKTTPMVLDSDGSFFLYSKLTVDKSRWQQGNVFSCSVMHEALHNHYTQKSLSLSP
light: DIVMTQSPATLSLSPGERATLSCTSSQSVYHANWLSWFQQKPGQPPKLLIYWASTLAYGVPSRFSGSGSGTDFTLTISSLQPEDAATYYCAGGYGGGRYAFGQGTKVEIKRTVAAPSVFIFPPSDEQLKSGTASVVCLLNNFYPREAKVQWKVDNALQSGNSQESVTEQDSKDSTYSLSSTLTLSKADYEKHKVYACEVTHQGLSSPVTKSFNRGEC
notes: Fc variant of MS1032LO06-SG1; EU numbering
[1]
  KD fold (SG1 = 1): 0.36 fold
[2]
  KD fold (SG1 = 1): 0.5 fold
[3]
  Kd: 1 µM
[4]
  Kd: 1 µM
[5]
  Kd: 7.9 µM

B2: M103205H795-MY145/M103202L889-SK1 (antibody, human IgG1, kappa, name in EU numbering)
heavy: QVTLKESGPVLVKPTETLTLTCTVSGIDLSHDDISWVRQAPGKGLEWVGIISYAGSTYYASWAKGRLTISKDTSKNQVVLTMTNMDPVDTATYYCARGVPAYSHGGDLWGQGTLVTVSSASTKGPSVFPLAPSSKSTSGGTAALGCLVKDYFPEPVTVSWNSGALTSGVHTFPAVLQSSGLYSLSSVVTVPSSSLGTQTYICNVNHKPSNTKVDKKVEPKSCDKTHTCPPCPAPELLNGPSVFLFPPKPKDTLMISRTPEVTCVVVDVSEEDPEVKFNWYVDGVEVHNAKTKPREEQYNSTYRVVSVLTVLHQDWLNGKEYKCKVSNKALPAEIEKTISKAKGQPREPQVYTLPPSREEMTKNQVSLTCLVKGFYPSDIAVEWESNGQPENNYKTTPMVLDSDGSFFLYSKLTVDKSRWQQGNVFSCSVMHEALHNHYTQKSLSLSP
light: DIVMTQSPATLSLSPGERATLSCTSSQSVYHANWLSWFQQKPGQPPKLLIYWASTLAYGVPSRFSGSGSGTDFTLTISSLQPEDAATYYCAGGYGGGRYAFGQGTKVEIKRTVAAPSVFIFPPSDEQLKSGTASVVCLLNNFYPREAKVQWKVDNALQSGNSQESVTEQDSKDSTYSLSSTLTLSKADYEKHKVYACEVTHQGLSSPVTKSFNRGEC
notes: Fc variant of MS1032LO06-SG1; positions in EU numbering
[6]
  Kd: 10 µM
[3]
  Kd: 3.6 µM
[7]
  Kd: 1.2 µM
[4]
  Kd: 2.5 µM
[8]
  Kd: 1.9 µM
[5]
  Kd: 9.1 µM
[9]
  Kd: 0.98 µM
[10]
  Kd: 2.4 µM

B3: M103205H795-MY198/M103202L889-SK1 (antibody, human IgG1, kappa, name in EU numbering)
heavy: QVTLKESGPVLVKPTETLTLTCTVSGIDLSHDDISWVRQAPGKGLEWVGIISYAGSTYYASWAKGRLTISKDTSKNQVVLTMTNMDPVDTATYYCARGVPAYSHGGDLWGQGTLVTVSSASTKGPSVFPLAPSSKSTSGGTAALGCLVKDYFPEPVTVSWNSGALTSGVHTFPAVLQSSGLYSLSSVVTVPSSSLGTQTYICNVNHKPSNTKVDKKVEPKSCDKTHTCPPCPAPELLNGPVVFLFPPKPKDTLMISRTPEVTCVVVDVSDEDPEVKFNWYVDGVEVHNAKTKPREEQYNSTYRVVSVLTVLHQDWLNGKEYKCKVSNKALPKPIEKTISKAKGQPREPQVYTLPPSREEMTKNQVSLTCLVKGFYPSDIAVEWESNGQPENNYKTTPMVLDSDGSFFLYSKLTVDKSRWQQGNVFSCSVMHEALHNHYTQKSLSLSP
light: DIVMTQSPATLSLSPGERATLSCTSSQSVYHANWLSWFQQKPGQPPKLLIYWASTLAYGVPSRFSGSGSGTDFTLTISSLQPEDAATYYCAGGYGGGRYAFGQGTKVEIKRTVAAPSVFIFPPSDEQLKSGTASVVCLLNNFYPREAKVQWKVDNALQSGNSQESVTEQDSKDSTYSLSSTLTLSKADYEKHKVYACEVTHQGLSSPVTKSFNRGEC
notes: as for B2
[3]
  Kd: 2.7 µM
[5]
  Kd: 6.9 µM
[10]
  Kd: 0.33 µM

B4: M103205H795-MY211/M103202L889-SK1 (antibody, human IgG1, kappa, name in EU numbering)
heavy: QVTLKESGPVLVKPTETLTLTCTVSGIDLSHDDISWVRQAPGKGLEWVGIISYAGSTYYASWAKGRLTISKDTSKNQVVLTMTNMDPVDTATYYCARGVPAYSHGGDLWGQGTLVTVSSASTKGPSVFPLAPSSKSTSGGTAALGCLVKDYFPEPVTVSWNSGALTSGVHTFPAVLQSSGLYSLSSVVTVPSSSLGTQTYICNVNHKPSNTKVDKKVEPKSCDKTHTCPPCPAPELLNGPVVFLFPPKPKDTLMISRTPEVTCVVVDVSDEDPEVKFNWYVDGVEVHNAKTKPREEQYNSTYRVVSVLTVLHQDWLNGKEYKCKVSNTALPKPIEKTISKAKGQPREPQVYTLPPSREEMTKNQVSLTCLVKGFYPSDIAVEWESNGQPENNYKTTPPVLDSDGSFFLYSKLTVDKSRWQQGNVFSCSVMHEALHNHYTQKSLSLSP
light: DIVMTQSPATLSLSPGERATLSCTSSQSVYHANWLSWFQQKPGQPPKLLIYWASTLAYGVPSRFSGSGSGTDFTLTISSLQPEDAATYYCAGGYGGGRYAFGQGTKVEIKRTVAAPSVFIFPPSDEQLKSGTASVVCLLNNFYPREAKVQWKVDNALQSGNSQESVTEQDSKDSTYSLSSTLTLSKADYEKHKVYACEVTHQGLSSPVTKSFNRGEC
notes: as for B2
[3]
  Kd: 3 µM
[7]
  Kd: 0.82 µM
[4]
  Kd: 1.3 µM
[5]
  Kd: 48 µM
[10]
  Kd: 0.58 µM
